The source of these data is paper doi:10.1101/2025.02.12.637823v1 (biorxiv, 2025).

One series concerns SlNADP-ME4a. The series can be described thus: initial velocity, spectrophotometric. In kind it is biochemical, Solanum lycopersicum. The following applies: pyruvate reductive carboxylation (reverse reaction); assay details not given.
Substrate in series [1]: CC(=O)C(=O)O
The series can be described thus: initial velocity, spectrophotometric. Type of series: biochemical, Solanum lycopersicum. The conditions noted are these: pyruvate reductive carboxylation (reverse reaction); assay details not given.

As to `CC(=O)C(=O)O` [pyr], the Michaelis constant (Km) (commonly the substrate concentration at which the rate is half of its maximum) in the series with SlNADP-ME4a amounted to 15.5 ± 1 mM.

B1: SlNADP-ME2 (Solanum lycopersicum) (protein)
chain: MESALKDLSTPTGGVEDVYGEDCATEDQCITPWTIAVSSGYNLLRDPRYNKGLAFTERERDAHYLRGLLPPVISSQELQEKKLMQSIRQYDVPLHKYVAMMELEERNERLFYKLLIDNVEELLPIVYTPTVGEACQKYGSLFKRPQGLYISLNEKGRILEVLKNWPEKSIQVIVVTDGERILGLGDLGCQGMGIPVGKLALYTALGGVRPSACLPITIDVGTNNEKLLNDEFYIGLRQRRATGQEYYDFLHEFMSAVKQNYGEKILVQFEDFANHNAFELLAKYRTSHLVFNDDIQGTASVVLAGLIASLKLLGGALCDHTFLFLGAGEAGTGIAELIALEISNKTNIPVEETRKKIWLVDSKGLIVSGRKETLQAFKKPWAHEHEPVNNLLDAVKAVKPTVLIGTSGTGRTFTKEVVEAMACMNKRPLIMALSNPTSQAECTAEEAYTWSEGRAVFASGSPFPSFEYDGKLNIPGQANNCYIFPGFGFGLVMSGTIRVHDDMLLAASEALAAQVTEEHYAKGMIYPPFADIRKISAHIAASVAAKAYELGVATRLPRPADLVKYAESCMYTPNYRSYR
For B1, in series [1], the Km is on record as 5.0 ± 1.1 mM and the kcat (commonly the maximal rate divided by the concentration of active sites) was determined as 26.5 ± 1.7 s⁻¹.
